Source: IntAct's records for PubMed 9294234

B1: Receptor protein kinase CLAVATA1 (Arabidopsis thaliana (Mouse-ear cress)), Q9SYQ8 (parent)
chain: MAMRLLKTHLLFLHLYLFFSPCFAYTDMEVLLNLKSSMIGPKGHGLHDWIHSSSPDAHCSFSGVSCDDDARVISLNVSFTPLFGTISPEIGMLTHLVNLTLAANNFTGELPLEMKSLTSLKVLNISNNGNLTGTFPGEILKAMVDLEVLDTYNNNFNGKLPPEMSELKKLKYLSFGGNFFSGEIPESYGDIQSLEYLGLNGAGLSGKSPAFLSRLKNLREMYIGYYNSYTGGVPPEFGGLTKLEILDMASCTLTGEIPTSLSNLKHLHTLFLHINNLTGHIPPELSGLVSLKSLDLSINQLTGEIPQSFINLGNITLINLFRNNLYGQIPEAIGELPKLEVFEVWENNFTLQLPANLGRNGNLIKLDVSDNHLTGLIPKDLCRGEKLEMLILSNNFFFGPIPEELGKCKSLTKIRIVKNLLNGTVPAGLFNLPLVTIIELTDNFFSGELPVTMSGDVLDQIYLSNNWFSGEIPPAIGNFPNLQTLFLDRNRFRGNIPREIFELKHLSRINTSANNITGGIPDSISRCSTLISVDLSRNRINGEIPKGINNVKNLGTLNISGNQLTGSIPTGIGNMTSLTTLDLSFNDLSGRVPLGGQFLVFNETSFAGNTYLCLPHRVSCPTRPGQTSDHNHTALFSPSRIVITVIAAITGLILISVAIRQMNKKKNQKSLAWKLTAFQKLDFKSEDVLECLKEENIIGKGGAGIVYRGSMPNNVDVAIKRLVGRGTGRSDHGFTAEIQTLGRIRHRHIVRLLGYVANKDTNLLLYEYMPNGSLGELLHGSKGGHLQWETRHRVAVEAAKGLCYLHHDCSPLILHRDVKSNNILLDSDFEAHVADFGLAKFLVDGAASECMSSIAGSYGYIAPEYAYTLKVDEKSDVYSFGVVLLELIAGKKPVGEFGEGVDIVRWVRNTEEEITQPSDAAIVVAIVDPRLTGYPLTSVIHVFKIAMMCVEEEAAARPTMREVVHMLTNPPKSVANLIAF
partner: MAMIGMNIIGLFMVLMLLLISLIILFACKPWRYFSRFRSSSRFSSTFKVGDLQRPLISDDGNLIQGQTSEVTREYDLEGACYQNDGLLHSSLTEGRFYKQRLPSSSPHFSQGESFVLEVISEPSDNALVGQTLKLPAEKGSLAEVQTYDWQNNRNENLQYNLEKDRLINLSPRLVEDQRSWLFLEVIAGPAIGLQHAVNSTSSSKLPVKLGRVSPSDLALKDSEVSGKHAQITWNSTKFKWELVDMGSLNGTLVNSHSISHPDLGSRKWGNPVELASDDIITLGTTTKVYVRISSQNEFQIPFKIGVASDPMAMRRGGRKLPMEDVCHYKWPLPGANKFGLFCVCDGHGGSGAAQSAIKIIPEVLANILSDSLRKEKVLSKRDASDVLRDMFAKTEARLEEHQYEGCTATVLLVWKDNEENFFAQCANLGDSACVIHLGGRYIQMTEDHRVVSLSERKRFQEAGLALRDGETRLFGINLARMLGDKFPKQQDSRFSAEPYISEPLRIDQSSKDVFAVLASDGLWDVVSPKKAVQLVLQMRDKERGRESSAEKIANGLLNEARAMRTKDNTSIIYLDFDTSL

Variants of: B1
Details: with KAPP

effect of a mutation on the interaction	Variant
disrupting interaction	K720E
disrupting interaction	G856D

Variants of: B1
Details: with KAPP
Remark: another data set of the same source

effect of a mutation on the interaction	Variant
decreasing interaction	G856D
